# B1: elotuzumab (antibody, V domains shown)
# VH: EVQLVESGGGLVQPGGSLRLSCAASGFDFSRYWMSWVRQAPGKGLEWIGEINPDSSTINYAPSLKDKFIISRDNAKNSLYLQMNSLRAEDTAVYYCARPDGNYWYFDVWGQGTLVTVSS
# VL: DIQMTQSPSSLSASVGDRVTITCKASQDVGIAVAWYQQKPGKVPKLLIYWASTRHTGVPDRFSGSGSGTDFTLTISSLQPEDVATYYCQQYSSYPYTFGQGTKVEIK
# Biological target: CS1 (human, UniProt Q9NQ25 23-335)
# Test: cell-based or functional assay
binder,measurement,value
B1,expanded autologous NK cell-mediated killing of multiple myeloma cells (51Cr release assay),≥ 1.7 fold

# From patent US20130058921A1 (published 2013)
